The target of one assay is GPIbα (Homo sapiens) (UniProt P07359). The settings on record: cited from earlier work.
Assay [1] has as its target T1, VWF A1 domain construct A1 short (residues 1264-1469) (human, UniProt P04275 1264-1469).
T1 construct: von Willebrand factor, human, A1 domain without the N- and C-linkers, residues 1264-1469, pre-pro-VWF numbering; Both the mammalian and the bacterial methods allow a 1264-1469 construct; If it was made in E. coli, it carried an N-terminal thioredoxin that was cut off with TEV protease; Long-range disulfide Cys1272-Cys1458 is present; source: purified (Ni-NTA, Superdex 200), gel filtered again on …
As to the kind of experiment: BLI; biotinylated GPIbα on streptavidin sensors, A1 constructs as analyte; 20 mM HEPES pH 7.5, 0.02% Tween-20, 150 mM NaCl; global fit to a single kon and koff; Octet RED384. The settings on record: both partners purified. For orientation: Biolayer interferometry detects binding as a change in optical thickness at a sensor tip.

Assay [2] has as its target T2, VWF A1 domain construct A1+OGly+N+C (residues 1238-1489, O-glycosylated) (human, UniProt P04275 1238-1489, O-glycosylated N- and C-linkers).
T2 construct: von Willebrand factor, human, A1 domain with the N- and C-linkers, residues 1238-1489, pre-pro-VWF numbering; It extends three residues beyond the bacterial A1+N+C so as to include the O-glycosylated residues Ser-1486 and Thr-1487; also called A1NC
The assay is described as above. The settings on record: both partners purified.

In assay [3] the target is T1, VWF A1 domain construct A1 short …. The assay is described as follows: ITC; GPIbα (250 uM; 550 uM with A1+OGly+N+C) titrated into A1 (22 uM; 50 uM with A1+OGly+N+C); 150 mM NaCl, 20 mM Tris-HCl pH 7.5, 22°C; MicroCal iTC200. The settings on record: both partners purified. On the technique in general: Isothermal titration calorimetry measures the heat released or taken up as one component is titrated into another.

What is called Kd is the equilibrium constant for the complex coming apart. For the molecule “von Willebrand factor A1 (tethered, high-affinity state) (from UniProt P04275)”, the Kd with GPIbα (Homo sapiens) was 80 nM.

B1: Wild-type GPIbα, residues 1-290 of the mature protein, with biotinylated Avi-tag and His6 tag (domain or fragment)
chain: HPICEVSKVASHLEVNCDKRNLTALPPDLPKDTTILHLSENLLYTFSLATLMPYTRLTQLNLDRCELTKLQVDGTLPVLGTLDLSHNQLQSLPLLGQTLPALTVLDVSFNRLTSLPLGALRGLGELQELYLKGNELKTLPPGLLTPTPKLEKLSLANNNLTELPAGLLNGLENLDTLLLQENSLYTIPKGFFGSHLLPFAFLHGNPWLCNCEILYFRRWLQDNAENVYVWKQGVDVKAMTSNVASVQCDNSDKFPVYKYPGKGCPTLGDEGDTDLYDYYPEEDTEGDKVR
modifications: biotin on the Avi-tag
B1: the Kd worked out at 180 nM in assay [1] and 9.2 µM in assay [2].

B2: Wild-type GPIbα, residues 1-290 of the mature protein, with His6 tag (no Avi-tag) (domain or fragment)
chain: HPICEVSKVASHLEVNCDKRNLTALPPDLPKDTTILHLSENLLYTFSLATLMPYTRLTQLNLDRCELTKLQVDGTLPVLGTLDLSHNQLQSLPLLGQTLPALTVLDVSFNRLTSLPLGALRGLGELQELYLKGNELKTLPPGLLTPTPKLEKLSLANNNLTELPAGLLNGLENLDTLLLQENSLYTIPKGFFGSHLLPFAFLHGNPWLCNCEILYFRRWLQDNAENVYVWKQGVDVKAMTSNVASVQCDNSDKFPVYKYPGKGCPTLGDEGDTDLYDYYPEEDTEGDKVR
modifications: Mature 1-290 = precursor 17-306 (signal peptide 1-16). The His6 tag is left out; no Avi-tag or biotin. Expressed in HEK293, so glycosylated and disulfide-bonded.
In the case of B2, in assay [3], the “fold higher affinity of A1 short than of A1+OGly+N+C” value was 39 fold.
